These results are taken from patent publication US10646600B2, “HER2 polypeptides useful for imaging and monitoring tumors and cancers” (GE HEALTHCARE LIMITED, priority 2013, dated 2020).

In one data set the test system is HER2 positive cell lines. In words: In vitro uptake assay, HER2 positive cell lines. Type of data set: cell-based, human. The source says:
(§1) MCF7-vector (piRES), MCF7-p95HER2 and MCF7-HER2 cells were a kind gift of Jose Baselga's laboratory (17). MCF7 clones, MDA-MB-231 (ATCC, Manassas, Va.), MDA-MB-361 (Sigma-Aldrich), SKBR-3 (ATCC) and SKOV-3 (Sigma-Aldrich) cells were maintained in DMEM. AGS (Sigma-Aldrich), HGC-27 (Sigma-Aldrich), NCI-N87 (ATCC) and OE-33 (ATCC) cells were maintained in RPMI (Sigma-Aldrich). A431 cells (Sigma-Aldrich) were maintained in MEM Eagle medium (Sigma-Aldrich). Growth media were supplemented with 10% FCS (Lonza, Basel, Switzerland), glutamine and antibiotics (both Invitrogen, Paisley, United Kingdom). A431 cells were additionally supplemented with 1% non-essential amino acids. All cells were cultured at 37° C. in a humidified atmosphere containing 5% CO2.
(§2) For baseline uptake in HER2 positive or negative lineages, 3×10^5 cells were seeded in complete media in 12-well plates (Corning, Tewksbury Mass.) and allowed to recover overnight. Cells were washed twice with serum-free medium and pulsed with 370 KBq in 500 μL serum-free medium for one h. […]
(§3) Cells were washed with PBS, trypsinized, neutralized with complete medium and centrifuged. […] The radioactivity of 100 μL lysate was counted on a Packard Cobra II gamma counter (Perkin Elmer). Radioactivity was normalized to applied radioactivity and protein content, which was determined for each sample by BCA assay (Pierce, Rockford, Ill.). […]

The test system of data set [1] is HER2 negative and p95HER2 transfected cell lines. In words: In vitro uptake assay, HER2 negative and p95HER2 transfected cell lines. The data set is classed as cell-based, human. Conditions: across all HER2 negative and p95HER2 transfected lines, 60 minutes.
From the text: as §1, §2, §3

The next data set has as its system SKOV-3 xenografts. In words: PET-CT imaging and kinetic modeling, SKOV-3 xenografts. Type of data set: in vivo, mice. On the procedure: […] […] To investigate response to HSP90 inhibition, SKOV-3 xenograft-bearing mice were treated with 50 mg/kg NVP-AUY922 or equivalent volume of vehicle (˜5 μL/g body weight; 10% DMSO and 5% Tween-20 in PBS) q.d. i.p. for three days. 24 h after the last treatment, animals were used for PET imaging.
Mice were anesthetized through isoflurane inhalation and scanned on a dedicated small animal PET-CT scanner (Siemens Multimodality Inveon, Erlangen, Germany). Low dose CT scans were first acquired (80 kVp, 0.5 mA, 220 degree rotation, 600 ms per degree exposure time, 80 μm reconstruction pixel size) for PET attenuation correction and to obtain an anatomical reference. PET images were acquired following a bolus i.v. injection of approximately 3.7 MBq [^18F]GE-226 in the tail vein. Dynamic emission scans were acquired in list mode format over 60 minutes. The acquired data were sorted into 0.5-mm sinogram bins and 19 time frames for image reconstruction by filtered back projection (4×15 seconds and 4×60 seconds followed by 11×300 seconds). The Siemens Inveon Research Workplace software was used for visualization of radiotracer uptake. 30 to 60-minute cumulative images of the dynamic data were employed to define 3-dimensional (3D) regions of interest (ROI). Arterial input function was estimated by drawing ROIs over the center of the heart cavity using 0.25 to 2 minutes of cumulative images. The count densities were averaged for all ROIs at each time point to obtain time versus radioactivity curves (TAC). Tumor TACs were normalized to injected dose measured by a VDC-304 dose calibrator (Veenstra Instruments, Joure, Netherlands) and normalized uptake was expressed as percentage injected dose per mL tissue (NUV; % ID/mL). Normalized uptake of radiotracer at 60 minutes (NUV60) was used for comparisons. For qualitative image visualization, cumulative images of the dynamic data (30 to 60 min) were also iteratively reconstructed (OSEM3D).
Kinetic analysis of PET data was performed applying a standard two-tissue irreversible compartmental model to fit each tumor TAC with the corresponding image-derived plasma TAC as input function (IF) to estimate K1 (mL/cm^3/min), k2, (1/min) and k3 (1/min) and the blood vascular component Vb (mL blood/mL tissue; unitless). The irreversible uptake rate Ki (mL/cm^3/min) was computed as K1×k3/(k2+k3). To estimate the kinetic parameters the measured tumor TAC (tTAC) was modeled as tTAC(t)=(1−Vb)h(t)⊗IF(t)+VbIF(t) with h(t) indicating the unknown tissue impulse function and ⊗ the convolution operator. The parameter vector p=[K1, k2, k3, Vb] was estimated with the standard Weighted Non-Linear Least Squares (WNLLS) by minimizing the Weighted Residual Sum of Squares (WRSS) function

The subject of a further data set is MCF7-p95HER2. In words: Biodistribution, MCF7-p95HER2 tumor. The data set is classed as in vivo, mice. The settings on record: 60 min. The source says: (§4) Mice were sacrificed at different time points by exsanguination.
The next data set relates to MDA-MB-361. In words: Biodistribution, MDA-MB-361 tumor. The data set is classed as in vivo, mice. Conditions: 60 min.
From the text: as §4

A further data set has as its system SKOV-3. As to the kind of experiment: Biodistribution, SKOV-3 tumor. The data set is classed as in vivo, mice.
From the text: as §4

“Also recorded” adds a separate entry of the source.

With “[^18F]GE-226: HER2-binding 18F-radiolabelled Affibody molecule ZHER2:2891”, the “dependence of uptake/binding on EGFR” value in the data set with HER2 positive cell lines is on record as “independent of presence of other targets like EGFR; also recorded: independent of expression”. In data set [1], the background uptake was 1.2±0.5 % applied radioactivity per mg protein. The substance also showed an NUV60 in the data set on SKOV-3 xenografts (PET, 60 minutes) of 18.7±2.4 % ID/mL. In addition, in the data set on SKOV-3 xenografts (SKOV-3 xenografts, 2 h versus 1 h), the “tumor tracer uptake at 2 h” value is listed as “higher at 2 h”. The “Ki (net irreversible uptake rate)” value in the data set on SKOV-3 xenografts (two-tissue irreversible compartmental model) is 0.036±0.0065 mL/cm^3/min. Besides, in the data set on MCF7-p95HER2, the “Tissue uptake, MCF7-p95HER2” value was determined as 6.55 ± 0.13 % ID/g tissue. The “Tissue uptake, MDA-MB-361” value in the data set on MDA-MB-361 came out at 17.00 ± 2.98 % ID/g tissue. Also, in the data set on SKOV-3 (60 min), the “Tissue uptake, SKOV-3” value came to 17.35 ± 0.83 % ID/g tissue. Besides, the tumor/muscle ratio with SKOV-3 (SKOV-3 tumor, 1 h) is approximately 60.
Consider “[^19F]GE-226: cold unlabeled non-radioactive 19F analogue of the tracer, used for SPR and blocking”, for which, in the data set on SKOV-3 xenografts (30 mg/kg [19F]GE-226 i.v. 20 minutes prior to PET scan), the “NUV60 of [18F]GE-226 in blocked tumors” value was found to be 7.1±1.6 % ID/mL.
